From patent publication CN117357474A (JIANGSU QUANXIN BIOMEDICAL CO LTD, dated 2024) come the findings set out here.

One may read the Kd as the constant that tells how readily two partners part at equilibrium. Lower therefore signals tighter binding. A word on the koff: it is the rate constant with which the complex falls apart. Low readings indicate a long-lived complex, high ones a short-lived complex. As usually defined, the kon is the second-order rate constant of association. A high value points to fast association.

Experiment [1] deals with T1, 人白介素-36受体 (human IL-36R), soluble antigen in the Biacore assay (human).
T1 chain: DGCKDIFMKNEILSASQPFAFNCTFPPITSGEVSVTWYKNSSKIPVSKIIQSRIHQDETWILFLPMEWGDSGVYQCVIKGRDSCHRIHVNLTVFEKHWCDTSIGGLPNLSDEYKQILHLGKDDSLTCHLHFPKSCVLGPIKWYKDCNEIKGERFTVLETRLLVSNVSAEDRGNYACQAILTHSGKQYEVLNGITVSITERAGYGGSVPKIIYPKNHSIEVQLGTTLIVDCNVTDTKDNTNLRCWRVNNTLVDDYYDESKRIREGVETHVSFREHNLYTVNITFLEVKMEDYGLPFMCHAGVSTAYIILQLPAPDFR
As to the kind of experiment: SPR, Biacore T200, antibody captured on Protein A chip, antigen in flow, 25°C, 1:1 model, mean of three runs.

For experiment [2], the target named is T2, human IL-36R on cells (HT29 reporter cells, HT29, A431, human PBMC) (human, UniProt Q9HB29 20-575).
T2 sequence (looked up): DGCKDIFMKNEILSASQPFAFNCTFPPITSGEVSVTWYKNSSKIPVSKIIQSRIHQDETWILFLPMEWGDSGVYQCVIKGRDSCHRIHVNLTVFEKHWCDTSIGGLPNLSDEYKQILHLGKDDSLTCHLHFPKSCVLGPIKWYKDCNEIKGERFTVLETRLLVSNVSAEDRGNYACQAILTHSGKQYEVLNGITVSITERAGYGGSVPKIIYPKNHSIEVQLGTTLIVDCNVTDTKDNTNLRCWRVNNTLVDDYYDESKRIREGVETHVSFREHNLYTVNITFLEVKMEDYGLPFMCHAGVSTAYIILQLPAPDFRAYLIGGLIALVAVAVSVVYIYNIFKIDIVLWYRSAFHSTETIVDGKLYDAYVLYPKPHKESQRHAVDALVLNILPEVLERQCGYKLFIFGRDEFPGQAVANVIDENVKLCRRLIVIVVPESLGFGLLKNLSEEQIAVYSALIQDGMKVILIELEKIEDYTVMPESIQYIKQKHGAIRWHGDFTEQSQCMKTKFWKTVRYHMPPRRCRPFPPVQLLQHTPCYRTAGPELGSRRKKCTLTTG
Briefly: cell-based or functional assay.

B1: QX009N(HZD25-54) (antibody, V domains shown)
VH: EVQLVESGGGLVQPGGSLRLSCAASGIDLSNYAMGWVRQAPGKGLEWVGYISGGGSAYYASWAKGRFTISRDNSKNTLYLQMNSLRAEDTAVYYCARWAIKSYFFGMDLWGQGTLVTVSS
VL: DIQMTQSPSSVSASVGDRVTITCQASEYISSYLAWYQQKPGKAPKLLIYQASTLASGVPSRFSGSGSGTDFTLTISSLQPEDFATYYCQTNNAIHTYGGAFGGGTKVEIK
In experiment [1], B1 registered a Kd of 0.313 nM, a dissociation rate constant (koff) of 3.58e-05 s⁻¹ and a kon of 114000 M⁻¹ s⁻¹. In experiment [2], the “抑制人IL-36(α、β、γ)诱导A431细胞释放CXCL-1的IC50” value came out at 4.12 ng/mL, the “抑制人IL-36(α、β、γ)诱导A431细胞释放IL-8的IC50” value was 2.89 ng/mL, the “抑制人IL-36(α、β、γ)诱导HT29细胞释放CXCL-1的IC50” value is 2.21 ng/mL and the “抑制人IL-36(α、β、γ)诱导HT29细胞释放IL-8的IC50” value came to 1.53 ng/mL. In addition, in experiment [2], the “抑制人IL-36(α、β、γ)诱导的HT29报告基因细胞STAT3磷酸化活性的IC50” value is 2.16 ng/mL and the 抑制人IL-36β诱导的人PBMC细胞释放IL-8活性的IC50 came to 4.69 ng/mL.

B2: Spesolimab (self-made from the B6 sequence of US9023995B2) (antibody, V domains shown)
VH: QVQLVQSGAEVKKPGASVKVSCKASGYSFTSSWIHWVKQAPGQGLEWMGEINPGNVRTNYNENFRNKVTMTVDTSISTAYMELSRLRSDDTAVYYCTVVFYGEPYFPYWGQGTLVTVSS
VL: QIVLTQSPGTLSLSPGERATMTCTASSSVSSSYFHWYQQKPGQAPRLWIYRTSRLASGVPDRFSGSGSGTDFTLTISRLEPEDAATYYCHQFHRSPLTFGAGTKLEIK
In experiment [1], B2 displayed a Kd of 0.862 nM, a koff of 3.11e-05 s⁻¹ and a kon of 36000 M⁻¹ s⁻¹. In experiment [2], the “抑制人IL-36(α、β、γ)诱导A431细胞释放CXCL-1的IC50” value was 22.5 ng/mL, the “抑制人IL-36(α、β、γ)诱导A431细胞释放IL-8的IC50” value worked out at 16 ng/mL, the “抑制人IL-36(α、β、γ)诱导HT29细胞释放CXCL-1的IC50” value was found to be 12.3 ng/mL and the “抑制人IL-36(α、β、γ)诱导HT29细胞释放IL-8的IC50” value is 11.5 ng/mL. Also, in experiment [2], the “抑制人IL-36(α、β、γ)诱导的HT29报告基因细胞STAT3磷酸化的IC50” value amounted to 15.7 ng/mL and the 抑制人IL-36β诱导的人PBMC释放IL-8活性的IC50 turned out to be 26.6 ng/mL.
